Measurements as given in paper PMC7450096, “Structural mechanism for replication origin binding and remodeling by a metazoan origin recognition complex and its co-loader Cdc6” (Nature Communications, 2020).
Each block holds one binder with its values, some of them ahead of it.

How the values were obtained:
[1] = target: DmORC Orc1deltaN;DmCdc6deltaN241 (Drosophila melanogaster;Drosophila …, UniProt O16810;Q24168;Q7K2L1;Q9W102;Q24169;Q9Y1B2;Q9VSM9 …, |del1-241); test: cryo-EM; ATP, Mg2+; Anisotropy: 1 nM dsDNA, 25 mM HEPES-KOH pH 7.6, 300 mM K-glutamate, 10 mM Mg-acetate, 10% glycerol, 0.1% NP40, 1 mM DTT, 0.1 mg/mL BSA, 0 or 1 mM ATP, 25 C, 40; details: protein: recombinant;recombinant; tags: tags cleaved;6xHis-MBP cleaved by TEV; copies: 1;1;1;1;1;1;1; blunt
[2] = target: T1, Drosophila Orc3, subunit of DmORC^Orc1ΔN (Drosophila, UniProt Q7K2L1 1-721); test: cryo-EM structure; DmORC^Orc1ΔN (2.5 μM), duplex DNA (3 μM; 60 bp AT-rich, 84 bp AT-rich, 60 bp poly(dA·dT) or 60 bp GC-rich) and DmCdc6ΔN (6.8 μM) assembled at 25 °C in 25 mM HEPES-KOH pH 7.6, 250 mM potassium acetate, 10 mM magnesium acetate, 1 mM DTT, 1 mM ATP; purified by gel filtration; details: both partners purified
T1 construct: Orc3, Drosophila; only Orc1 is named as truncated in DmORC^Orc1ΔN; also called DmOrc3; source: Hi5 insect cells, co-expressed with the other ORC subunits, purified as part of DmORC^Orc1ΔN
T1 sequence: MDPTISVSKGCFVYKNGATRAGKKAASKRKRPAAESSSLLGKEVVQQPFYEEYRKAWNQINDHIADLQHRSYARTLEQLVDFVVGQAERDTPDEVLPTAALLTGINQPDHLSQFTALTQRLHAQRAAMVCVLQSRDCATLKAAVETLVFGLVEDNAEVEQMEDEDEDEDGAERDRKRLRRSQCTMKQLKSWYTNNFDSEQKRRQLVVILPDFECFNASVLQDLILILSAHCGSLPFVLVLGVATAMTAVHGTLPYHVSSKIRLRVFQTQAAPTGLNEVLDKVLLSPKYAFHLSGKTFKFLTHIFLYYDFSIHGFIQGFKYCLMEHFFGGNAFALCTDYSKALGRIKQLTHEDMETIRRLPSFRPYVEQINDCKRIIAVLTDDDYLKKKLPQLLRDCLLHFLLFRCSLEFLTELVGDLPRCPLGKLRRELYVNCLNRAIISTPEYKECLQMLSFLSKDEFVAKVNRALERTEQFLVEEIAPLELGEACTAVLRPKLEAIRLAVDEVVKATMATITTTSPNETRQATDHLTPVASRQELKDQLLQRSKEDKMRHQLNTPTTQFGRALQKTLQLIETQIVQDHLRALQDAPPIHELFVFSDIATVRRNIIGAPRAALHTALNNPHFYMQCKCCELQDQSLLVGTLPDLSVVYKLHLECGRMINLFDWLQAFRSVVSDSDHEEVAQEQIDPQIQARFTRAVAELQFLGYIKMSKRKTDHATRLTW

[3] = target: T2, Drosophila Orc2, subunit of DmORC^Orc1ΔN (Drosophila, UniProt Q24168 1-618); test: as above; details: both partners purified
T2 construct: Orc2, Drosophila; only Orc1 is named as truncated in DmORC^Orc1ΔN; also called DmOrc2; source: Hi5 insect cells, co-expressed with the other ORC subunits, purified as part of DmORC^Orc1ΔN
T2 sequence: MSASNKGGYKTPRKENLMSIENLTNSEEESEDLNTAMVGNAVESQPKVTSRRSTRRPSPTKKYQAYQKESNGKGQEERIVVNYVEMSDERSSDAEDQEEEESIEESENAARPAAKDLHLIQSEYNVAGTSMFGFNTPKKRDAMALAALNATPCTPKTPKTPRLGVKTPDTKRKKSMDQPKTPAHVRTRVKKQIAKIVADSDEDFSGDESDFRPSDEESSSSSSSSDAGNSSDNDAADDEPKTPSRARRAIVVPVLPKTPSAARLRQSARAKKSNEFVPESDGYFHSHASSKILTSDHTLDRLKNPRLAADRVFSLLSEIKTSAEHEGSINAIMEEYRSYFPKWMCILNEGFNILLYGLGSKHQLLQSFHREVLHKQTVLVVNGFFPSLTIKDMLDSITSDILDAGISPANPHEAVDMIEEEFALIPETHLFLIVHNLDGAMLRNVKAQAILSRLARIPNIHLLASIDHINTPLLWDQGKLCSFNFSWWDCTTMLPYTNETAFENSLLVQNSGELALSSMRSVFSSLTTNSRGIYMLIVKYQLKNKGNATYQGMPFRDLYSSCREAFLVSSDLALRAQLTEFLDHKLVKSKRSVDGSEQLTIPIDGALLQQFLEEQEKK

[4] = target: T3, Drosophila origin recognition complex with N-terminally truncated Orc1 (DmORC^Orc1ΔN) (Drosophila, UniProt O16810 440-924; Q24168 1-618; Q7K2L1 1-721; Q9W102 1-459; Q24169 1-460; Q9Y1B2 …); test: as above; details: both partners purified
T3 construct: Orc1, Drosophila, without the N-terminal 439 amino acid residues (Orc1ΔN); Orc2, Drosophila; only Orc1 is named as truncated in DmORC^Orc1ΔN; Orc3, Drosophila; Orc4, Drosophila; Orc5, Drosophila; Orc6, Drosophila; full-length DmOrc6 was used to reconstitute the binary and ternary complexes; Heterohexamer used for cryo-EM and for the pull-down with Cdc6ΔN; also called truncated DmORC; not shown: …

[5] = target: T4, Drosophila Orc1 lacking the N-terminal 439 residues (Orc1ΔN), subunit of DmORC^Orc1ΔN (Drosophila, UniProt O16810 440-924); test: as above; details: both partners purified
T4 construct: Orc1, Drosophila, without the N-terminal 439 amino acid residues; also called DmOrc1; source: Hi5 insect cells, co-expressed with the other ORC subunits, purified as part of DmORC^Orc1ΔN; not shown: 6xHis, N-terminal, cleaved
T4 sequence (looked up): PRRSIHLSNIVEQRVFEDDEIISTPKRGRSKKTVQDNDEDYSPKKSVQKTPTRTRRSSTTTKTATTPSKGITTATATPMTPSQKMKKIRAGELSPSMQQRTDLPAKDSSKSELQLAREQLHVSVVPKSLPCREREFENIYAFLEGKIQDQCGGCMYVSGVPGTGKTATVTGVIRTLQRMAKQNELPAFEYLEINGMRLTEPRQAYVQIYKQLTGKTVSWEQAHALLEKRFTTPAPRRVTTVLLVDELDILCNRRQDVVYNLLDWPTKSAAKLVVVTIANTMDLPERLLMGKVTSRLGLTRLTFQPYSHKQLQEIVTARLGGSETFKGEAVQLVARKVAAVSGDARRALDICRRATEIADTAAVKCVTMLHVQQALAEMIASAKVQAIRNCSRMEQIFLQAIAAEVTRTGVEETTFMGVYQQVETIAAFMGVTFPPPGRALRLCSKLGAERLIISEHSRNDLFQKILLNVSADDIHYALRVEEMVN

[6] = target: T3, Drosophila origin recognition complex …; test: pull-down; MBP-DmCdc6 or 6xHis-MBP-DmCdc6ΔN (200 nM) as bait on amylose beads; DmORC (100 nM) with 60 bp AT-rich dsDNA (100 nM); 25 mM HEPES-KOH pH 7.6, 300 mM potassium glutamate, 10 mM magnesium acetate, 10% glycerol, 1 mM DTT, 0 or 1 mM ATP; 25 °C; SDS-PAGE and silver staining; details: both partners purified

T3 sequence (chain, as listed by the source mutant, chain 4 of 3): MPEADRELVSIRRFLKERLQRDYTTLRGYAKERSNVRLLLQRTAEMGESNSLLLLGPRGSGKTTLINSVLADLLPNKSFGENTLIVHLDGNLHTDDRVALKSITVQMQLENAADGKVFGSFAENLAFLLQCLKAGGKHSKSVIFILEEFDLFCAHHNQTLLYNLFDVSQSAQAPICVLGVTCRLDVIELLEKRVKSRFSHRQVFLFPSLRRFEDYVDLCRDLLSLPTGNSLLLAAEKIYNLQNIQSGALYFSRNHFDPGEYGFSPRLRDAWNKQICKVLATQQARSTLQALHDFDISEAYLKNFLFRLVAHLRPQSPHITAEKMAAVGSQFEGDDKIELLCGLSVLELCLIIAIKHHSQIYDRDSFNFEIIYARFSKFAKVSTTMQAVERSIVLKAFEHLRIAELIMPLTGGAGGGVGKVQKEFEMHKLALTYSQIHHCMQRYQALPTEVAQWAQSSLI
T3 sequence (Q24169 whole entry, stated change not applied, chain 5 of 3, the tested form may be a part): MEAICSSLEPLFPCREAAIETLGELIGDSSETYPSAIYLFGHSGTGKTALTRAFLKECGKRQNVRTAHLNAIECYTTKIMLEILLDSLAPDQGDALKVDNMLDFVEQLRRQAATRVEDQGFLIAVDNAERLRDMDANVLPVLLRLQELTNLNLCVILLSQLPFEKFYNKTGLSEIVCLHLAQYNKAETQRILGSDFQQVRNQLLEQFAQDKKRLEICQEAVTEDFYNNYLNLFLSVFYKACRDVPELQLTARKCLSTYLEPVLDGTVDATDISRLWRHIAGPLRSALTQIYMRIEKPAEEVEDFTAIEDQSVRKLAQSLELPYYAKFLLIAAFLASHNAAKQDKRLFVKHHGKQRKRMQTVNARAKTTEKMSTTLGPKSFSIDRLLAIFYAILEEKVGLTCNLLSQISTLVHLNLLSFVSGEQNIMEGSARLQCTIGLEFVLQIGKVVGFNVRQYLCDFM
T3 sequence (Q9Y1B2 whole entry, stated change not applied, chain 6 of 3, the tested form may be a part): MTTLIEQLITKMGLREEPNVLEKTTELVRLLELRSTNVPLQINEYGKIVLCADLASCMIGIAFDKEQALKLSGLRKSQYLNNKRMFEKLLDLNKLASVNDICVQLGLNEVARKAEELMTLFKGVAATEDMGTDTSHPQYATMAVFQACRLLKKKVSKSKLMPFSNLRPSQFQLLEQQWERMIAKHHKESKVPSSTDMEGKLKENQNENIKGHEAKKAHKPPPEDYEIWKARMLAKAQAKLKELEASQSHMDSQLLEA
DmORC Orc1deltaN;DmCdc6deltaN241, sequence (chain, as listed by the source |del1-241 | mutant, chain 4 of 3): as the sequence (chain, as listed by the source mutant, chain 4 of 3) above
DmORC Orc1deltaN;DmCdc6deltaN241, sequence (Q24169 whole entry, stated change not applied, chain 5 of 3): as the sequence (Q24169 whole entry, stated change not applied, chain 5 of 3, the tested form may be a part) above
DmORC Orc1deltaN;DmCdc6deltaN241, sequence (Q9Y1B2 whole entry, stated change not applied, chain 6 of 3): as the sequence (Q9Y1B2 whole entry, stated change not applied, chain 6 of 3, the tested form may be a part) above

B1: 84 bp AT-rich (dsDNA)
DNA 1: TTTGTGCACTTGCCTGCAGGCCTTTTGAAAAGCAAGCATAAAAGATCTAAACATAAAATCTGTAAAATAACAAGATGTAAAGAT
DNA 2: ATCTTTACATCTTGTTATTTTACAGATTTTATGTTTAGATCTTTTATGCTTGCTTTTCAAAAGGCCTGCAGGCAAGTGCACAAA
binding result [1]: binds

binding result [2]: binds | binding result [3]: binds | binding result [4]: binds | binding result [5]: binds
B2: N-terminally truncated Drosophila Cdc6 (DmCdc6ΔN241), tags removed (domain or fragment, UniProt Q9VSM9 242-662, looked up)
chain: NNLPSPSRNKYQNARRVLNSAETQNLPGRESQLQELREFFSNHLESQTSGSLYVSGQPGTGKTACLSLLLRDPDFSKRLQRVYINCTSIASVGAVYKKLCTELQLKVSGRTERDHLEAIQRHLKTAKRMLLLVLDEIDQLCTSRQEVLYTIFEWPALPGSRILLVGIANSLDLTDRALMRLNARCELKPRLMHFPPYSKQQIVEIFKSRLAEAEVLDVFPPVTLQLLAAKVSAISGDVRRALDIGRRVVEIAEQQKRDGEKEFNMKALQLEGKDAVEAKEKQDTLKPVQVTQVAAVLNKVYGASQNLEEDIEASFPLQQKLMLCTLVLMLRNERNKDISMGRLHEVYRRVCAKRNILALDQAEFTGTVDLVETRGILRIMRKKEPRLHKVLLQWDEEEVHAALSDKQLIASILSDTACLSK
notes: Cdc6, Drosophila, ΔN241, amino acids 242-662; not shown: 6xHis, N-terminal, cleaved; MBP, N-terminal, cleaved

binding result [6]: binds
B3: 6xHis-MBP-tagged N-terminally truncated Drosophila Cdc6 (6xHis-MBP-DmCdc6ΔN241) (domain or fragment, UniProt Q9VSM9 242-662, looked up)
chain: NNLPSPSRNKYQNARRVLNSAETQNLPGRESQLQELREFFSNHLESQTSGSLYVSGQPGTGKTACLSLLLRDPDFSKRLQRVYINCTSIASVGAVYKKLCTELQLKVSGRTERDHLEAIQRHLKTAKRMLLLVLDEIDQLCTSRQEVLYTIFEWPALPGSRILLVGIANSLDLTDRALMRLNARCELKPRLMHFPPYSKQQIVEIFKSRLAEAEVLDVFPPVTLQLLAAKVSAISGDVRRALDIGRRVVEIAEQQKRDGEKEFNMKALQLEGKDAVEAKEKQDTLKPVQVTQVAAVLNKVYGASQNLEEDIEASFPLQQKLMLCTLVLMLRNERNKDISMGRLHEVYRRVCAKRNILALDQAEFTGTVDLVETRGILRIMRKKEPRLHKVLLQWDEEEVHAALSDKQLIASILSDTACLSK
notes: Cdc6, Drosophila, ΔN241, amino acids 242-662; also called 6xHis-MBP-tagged DmCdc6ΔN241; source: TEV cleavage omitted; not shown: 6xHis, N-terminal, kept; MBP, N-terminal, kept

B4: 60 bp GC-rich (70% GC) (dsDNA)
DNA 1: GGGGCTCGACTCCAAGTGCGGGGCACTCGTCTGTGAGGGGGCTCAGTTCGCACTGCGGGG
DNA 2: CCCCGCAGTGCGAACTGAGCCCCCTCACAGACGAGTGCCCCGCACTTGGAGTCGAGCCCC
binding result [1]: binds
